From IntAct's records for PubMed 17704763

B1: Adagio protein 1 (Arabidopsis thaliana (Mouse-ear cress)), Q94BT6 (parent)
chain: MEWDSGSDLSADDASSLADDEEGGLFPGGGPIPYPVGNLLHTAPCGFVVTDAVEPDQPIIYVNTVFEMVTGYRAEEVLGGNCRFLQCRGPFAKRRHPLVDSMVVSEIRKCIDEGIEFQGELLNFRKDGSPLMNRLRLTPIYGDDDTITHIIGIQFFIETDIDLGPVLGSSTKEKSIDGIYSALAAGERNVSRGMCGLFQLSDEVVSMKILSRLTPRDVASVSSVCRRLYVLTKNEDLWRRVCQNAWGSETTRVLETVPGAKRLGWGRLARELTTLEAAAWRKLSVGGSVEPSRCNFSACAVGNRVVLFGGEGVNMQPMNDTFVLDLNSDYPEWQHVKVSSPPPGRWGHTLTCVNGSNLVVFGGCGQQGLLNDVFVLNLDAKPPTWREISGLAPPLPRSWHSSCTLDGTKLIVSGGCADSGVLLSDTFLLDLSIEKPVWREIPAAWTPPSRLGHTLSVYGGRKILMFGGLAKSGPLKFRSSDVFTMDLSEEEPCWRCVTGSGMPGAGNPGGVAPPPRLDHVAVNLPGGRILIFGGSVAGLHSASQLYLLDPTEDKPTWRILNIPGRPPRFAWGHGTCVVGGTRAIVLGGQTGEEWMLSELHELSLASYLT
partner: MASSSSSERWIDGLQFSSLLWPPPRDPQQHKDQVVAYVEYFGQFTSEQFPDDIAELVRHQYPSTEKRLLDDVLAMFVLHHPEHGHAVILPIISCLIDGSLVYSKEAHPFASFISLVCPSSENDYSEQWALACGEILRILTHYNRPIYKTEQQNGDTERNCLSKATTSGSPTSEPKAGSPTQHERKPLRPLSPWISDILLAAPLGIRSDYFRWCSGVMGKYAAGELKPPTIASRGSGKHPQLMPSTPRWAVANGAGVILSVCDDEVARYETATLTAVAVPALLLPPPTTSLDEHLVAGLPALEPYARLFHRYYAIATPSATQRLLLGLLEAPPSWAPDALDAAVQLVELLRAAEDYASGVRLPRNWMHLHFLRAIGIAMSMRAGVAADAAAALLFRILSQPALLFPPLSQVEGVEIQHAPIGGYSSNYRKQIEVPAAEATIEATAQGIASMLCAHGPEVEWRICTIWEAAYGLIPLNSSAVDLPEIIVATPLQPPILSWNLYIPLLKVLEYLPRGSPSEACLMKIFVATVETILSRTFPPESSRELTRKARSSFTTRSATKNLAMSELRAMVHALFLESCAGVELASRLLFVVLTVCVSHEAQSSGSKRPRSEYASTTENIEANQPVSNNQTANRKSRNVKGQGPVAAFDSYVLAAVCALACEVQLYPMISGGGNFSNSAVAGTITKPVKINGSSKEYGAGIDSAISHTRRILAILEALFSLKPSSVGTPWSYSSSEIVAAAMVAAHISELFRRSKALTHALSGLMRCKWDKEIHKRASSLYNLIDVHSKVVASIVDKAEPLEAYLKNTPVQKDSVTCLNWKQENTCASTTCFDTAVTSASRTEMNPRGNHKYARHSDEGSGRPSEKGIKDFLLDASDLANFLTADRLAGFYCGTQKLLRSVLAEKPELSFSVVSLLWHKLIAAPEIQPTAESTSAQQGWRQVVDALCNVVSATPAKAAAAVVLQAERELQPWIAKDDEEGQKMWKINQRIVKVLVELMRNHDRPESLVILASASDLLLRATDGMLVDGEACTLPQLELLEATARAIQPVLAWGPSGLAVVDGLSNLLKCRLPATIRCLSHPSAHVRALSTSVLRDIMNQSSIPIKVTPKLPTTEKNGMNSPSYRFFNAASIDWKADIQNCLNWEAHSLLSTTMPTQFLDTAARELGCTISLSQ

Variants of: B1
Settings: with gigan_arath GI

Variant	effect of a mutation on the interaction
G46E	disrupting interaction strength
C82A	decreasing interaction strength
G119D	decreasing interaction strength
